Source: US20180327503A1 (RINAT NEUROSCIENCE, published 2018)
Where a chain is given by its changes, count along the chain named. One block for each binder: values may come before it.

Experiments:
[1] = biological target: T1, human IL-7R on human peripheral blood mononuclear cells (CD4+ gated) (human, UniProt P16871 21-459); assay: cell-based or functional assay
T1 sequence (looked up): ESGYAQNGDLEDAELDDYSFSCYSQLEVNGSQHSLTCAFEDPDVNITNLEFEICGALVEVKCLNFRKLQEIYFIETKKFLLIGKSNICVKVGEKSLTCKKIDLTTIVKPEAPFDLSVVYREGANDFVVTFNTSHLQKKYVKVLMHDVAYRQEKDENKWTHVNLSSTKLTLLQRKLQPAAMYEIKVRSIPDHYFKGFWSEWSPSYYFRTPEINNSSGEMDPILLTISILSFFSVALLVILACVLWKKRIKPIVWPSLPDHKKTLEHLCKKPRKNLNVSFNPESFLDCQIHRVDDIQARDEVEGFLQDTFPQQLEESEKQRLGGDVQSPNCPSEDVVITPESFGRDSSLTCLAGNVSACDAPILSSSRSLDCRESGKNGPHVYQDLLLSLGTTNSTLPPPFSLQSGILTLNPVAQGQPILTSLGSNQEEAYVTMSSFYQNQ

[2] = biological target: T2, Human IL-7R-hFc antigen (R&D systems) (human, UniProt P16871 21-239); assay: SPR (Biacore 2000/3000), IL-7R-hFc captured on anti-human Fc, antibody as analyte
T2 construct: Bought from R&D Systems; not shown: human Fc (hFc) of the bought fusion
T2 sequence (looked up): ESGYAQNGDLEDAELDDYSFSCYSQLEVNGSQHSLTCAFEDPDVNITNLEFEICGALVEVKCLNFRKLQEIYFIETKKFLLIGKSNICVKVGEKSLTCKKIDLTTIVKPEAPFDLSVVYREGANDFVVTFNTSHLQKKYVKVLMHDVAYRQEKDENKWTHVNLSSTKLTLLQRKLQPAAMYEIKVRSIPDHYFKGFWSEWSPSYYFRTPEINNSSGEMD
Procedure: The affinities of antagonist IL-7R antibodies to human IL-7R were measured on a surface plasmon resonance Biacore™ 2000 or 3000 biosensor equipped with a research-grade CM5 sensor chip (Biacore™ AB, Uppsala, Sweden—now GE Healthcare). Goat polyclonal anti-human F(ab′)2 fragments (Fc specific) were amine-coupled at saturating levels onto all four flow cells using a standard N-hydroxysuccinimide/ethyldimethylaminopropyl carbodiimide (NHS/EDC) chemistry in HBS-P running buffer (from Biacore™). The buffer was switched to HBS-P containing 1 mg/mL BSA. Human IL-7R-hFc antigen (R&D systems, Minneapolis, USA) was diluted to about 30 μg/mL and captured for 3 min at 5 μL/min to give levels of about 500-1000 RU per flow cell, leaving one blank to serve as a reference channel. Fab, hIgG1, or hIgG2ΔA formats of the antibodies were injected in duplicates as a 5-membered 3-fold series starting at 2 μM and a 5-membered 4-fold series starting at 0.4 μM for 3 min at 20-50 μL/min. Dissociation was monitored for 5 min. The capture chip was regenerated after the last injection of each titration with two 30 sec pulses of 75 mM phosphoric acid or 10 mM Glycine-HCl pH 1.7. Buffer cycles provided blanks for double-referencing the binding response data, which were then fit globally to a simple reversible binding model using Biaevaluation software v.4.1 to deduce the kinetic association and dissociation rate constants, respectively kₐ and kd. Affinities were deduced from their ratio (KD=kd/kₐ).

B1: P2D2 (antagonist IL-7R fully human monoclonal antibody, format not stated) (antibody, V domains shown)
VH: QVNLRESGGGLVKPGGSLRLSCAASGFTFDDSVMHWVRQAPGKGLEWLSLVGWDGFFTYYADSVKGRFTISRDNTKNLLYLQMNSLRAEDTAVYYCARQGDYVFNNWGQGTLVTVSS
VL: NFMLTQPHSVSGSPGKTVTISCTRSSGSIDSSYVQWYQQRPGNSPTTVIYEDDQRPSGVPDRFSGSIDSSSNSASLTISGLVTEDEADYYCMQYDSSHLVFGGGTKLTVLC
IC50 (read off the curve) [1]: ~0.1 µg/mL

B2: P2E11 (antagonist IL-7R fully human monoclonal antibody, format not stated) (antibody, V domains shown)
VH: B1 VH with V103M, F104G, N105D, N106Y
VL: B1 VL with M92Q, Q93S, S96F, S97H
IC50 (read off the curve) [1]: ~0.04 µg/mL

B3: C2M3 (hIgG1) (antibody, V domains shown)
VH: B1 VH with Q1E, N3Q, R5V, L48V, T75A, L78S, V103M, F104G
VL: NFMLTQPHSVSESPGKTVTISCTRSSGSIDSSYVQWYQQRPGSSPTTVIYEDDQRPSGVPDRFSGSIDSSSNSASLTISGLKTEDEADYYCMQYDFHHLVFGGGTKLTVL
notes: Only variable domains are tied to C2M3
Kd [2]: 0.218 nM | koff [2]: 0.000307 s⁻¹ | kon [2]: 1.41e+06 M⁻¹ s⁻¹

B5: HAL403a Fab (Fab, V domains shown)
VH: B1 VH with V103M, F104G
VL: B1 VL with M92Q, Q93S, S96F, S97H
Kd [2]: 0.06 nM | koff [2]: 0.000286 s⁻¹ | kon [2]: 5.07e+06 M⁻¹ s⁻¹

B6: P3A9 Fab (Fab, V domains shown)
VH: B1 VH with F56S, F57A, N105D, N106Y
VL: B1 VL with M92Q, Q93S
Kd [2]: 204 nM | koff [2]: 0.0114 s⁻¹ | kon [2]: 56000 M⁻¹ s⁻¹

B7: P2D2 Fab (Fab, V domains shown)
VH: B1 VH
VL: B1 VL
Kd [2]: 12 nM | koff [2]: 0.000882 s⁻¹ | kon [2]: 71700 M⁻¹ s⁻¹

B13: P4B3 Fab (Fab, V domains shown)
VH: QVTLKESGGGLVQPGGSLRLSCAASGFTFSNYGMHWVRQAPGKGLEWVSAISGSGGSTYYADSVKGRFTISRDNSKNTVYLQMNSLRDEDTAVYYCARDISGGGMDVWGQGTTVTVSS
VL: NFMLTQPHSVSESPGKTVTISCTGSSGRIASSYVQWYQQRPGSAPTTVIYEDNQRPSGVPDRFSGSIDSSSNSASLTISGLKTEDEADYYCQSYASSSLWVFGGGTQLTVLS
Kd [2]: 225 nM | koff [2]: 0.00351 s⁻¹ | kon [2]: 15600 M⁻¹ s⁻¹

Further binders by falling Kd [2], results first:

Kd [2]: 3 nM | koff [2]: 0.000497 s⁻¹ | kon [2]: 155000 M⁻¹ s⁻¹
B8: P2E11 Fab (Fab, V domains shown)
VH: B1 VH with V103M, F104G, N105D, N106Y
VL: B1 VL with M92Q, Q93S, S96F, S97H

Kd [2]: 0.286 nM | koff [2]: 0.000405 s⁻¹ | kon [2]: 1.42e+06 M⁻¹ s⁻¹
B11: C1GM (hIgG1) (antibody)
heavy: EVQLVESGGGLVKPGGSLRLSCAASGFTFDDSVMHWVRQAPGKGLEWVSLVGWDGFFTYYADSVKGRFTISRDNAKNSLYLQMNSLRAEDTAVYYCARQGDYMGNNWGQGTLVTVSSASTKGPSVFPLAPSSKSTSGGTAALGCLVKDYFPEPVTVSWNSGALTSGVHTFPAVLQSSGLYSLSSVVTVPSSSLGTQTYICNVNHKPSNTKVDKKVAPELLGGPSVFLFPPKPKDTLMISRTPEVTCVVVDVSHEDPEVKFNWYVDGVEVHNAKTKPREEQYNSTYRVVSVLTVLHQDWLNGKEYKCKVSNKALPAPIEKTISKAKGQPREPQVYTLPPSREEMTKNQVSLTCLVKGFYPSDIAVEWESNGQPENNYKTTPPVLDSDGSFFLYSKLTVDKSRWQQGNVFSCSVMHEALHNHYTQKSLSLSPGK
light: NFMLTQPHSVSESPGKTVTISCTRSSGSIDSSYVQWYQQRPGSSPTTVIYEDDQRPSGVPDRFSGSIDSSSNSASLTISGLKTEDEADYYCQSYDFHHLVFGGGTKLTVLQPKAAPSVTLFPPSSEELQANKATLVCLISDFYPGAVTVAWKADSSPVKAGVETTTPSKQSNNKYAASSYLSLTPEQWKSHRSYSCQVTHEGSTVEKTVAPTECS

Kd [2]: 0.27 nM | koff [2]: 0.000407 s⁻¹ | kon [2]: 1.51e+06 M⁻¹ s⁻¹
B12: C1GM-2 (hIgG2ΔA) (antibody)
heavy: EVQLVESGGGLVKPGGSLRLSCAASGFTFDDSVMHWVRQAPGKGLEWVSLVGWDGFFTYYADSVKGRFTISRDNAKNSLYLQMNSLRAEDTAVYYCARQGDYMGNNWGQGTLVTVSSASTKGPSVFPLAPCSRSTSESTAALGCLVKDYFPEPVTVSWNSGALTSGVHTFPAVLQSSGLYSLSSVVTVPSSNFGTQTYTCNVDHKPSNTKVDKTVAPPVAGPSVFLFPPKPKDTLMISRTPEVTCVVVDVSHEDPEVQFNWYVDGVEVHNAKTKPREEQFNSTFRVVSVLTVVHQDWLNGKEYKCKVSNKGLPSSIEKTISKTKGQPREPQVYTLPPSREEMTKNQVSLTCLVKGFYPSDIAVEWESNGQPENNYKTTPPMLDSDGSFFLYSKLTVDKSRWQQGNVFSCSVMHEALHNHYTQKSLSLSPGK
light: B11 light
notes: the footnote is printed with **)

Kd [2]: 0.195 nM | koff [2]: 0.000302 s⁻¹ | kon [2]: 1.55e+06 M⁻¹ s⁻¹
B4: C2M3 (hIgG2ΔA) (antibody, V domains shown)
VH: B1 VH with Q1E, N3Q, R5V, L48V, T75A, L78S, V103M, F104G
VL: B3 VL
notes: the footnote is printed with **); Only variable domains are tied to C2M3

Kd [2]: 0.06 nM | koff [2]: 8.08e-05 s⁻¹ | kon [2]: 1.39e+06 M⁻¹ s⁻¹
B9: HAL403b Fab (Fab, V domains shown)
VH: B1 VH with V103M, F104G
VL: B1 VL with S96F, S97H

Kd [2]: 0.04 nM | koff [2]: 0.000171 s⁻¹ | kon [2]: 4.85e+06 M⁻¹ s⁻¹
B10: C1GM Fab (Fab, V domains shown)
VH: B1 VH with Q1E, N3Q, R5V, L48V, T75A, L78S, V103M, F104G
VL: B3 VL with M92Q, Q93S
